Entries after “also recorded” stand apart in the source; their conditions may differ.
Key:
intracellular zinc = test: Fura-2 fluorescence signal of intracellular zinc in HEK 293 cells; type: cell-based, human; conditions: HEK 293 cells exposed to zinc, then TPEN (FIG. 1, FIG. 3 inset)
Method: (§1) Cells were incubated for 30 minutes with 5 μM of the ratiometric dye Fura-2-AM (TEF Labs) in 0.1% BSA-sodium Ringer's solution. Fura-2-AM binds zinc with very high affinity. After incubation, the cells were washed in Ringer's solution and the cover glass mounted on a holder that allowed the perfusion of liquids into the cells. Signals resulting from Ca^+2 or Zn^+2 changes were distinguished by using the intracellular zinc chelator TPEN. Changes in intracellular cation concentration were monitored by a single cell imaging system, consisting of a Zeiss Axiovert 100, inverted microscope, Polychrome II monochromator (TILL Photonics) and a cooled CCD (PCO). The data was acquired and processed by Axon Imaging Workbench 2, Excel and KleidaGraph. Fura-2 was excited at 340 nm and 380 nm and the image obtained with a 510 nm long-pass filter. The data was analyzed post acquisition, by selecting single cells (30-50) from the field of view and recording their activity.
To measure the accumulation of intracellular zinc, HEK 293 cells were superfused with Ca-free, zinc-containing Ringer solution, and the […] of Fura-2 was evaluated. Fura-2 is a highly sensitive probe for changes in intracellular Zn^2+ concentration.

ZnT-1 = ZnT-1 expression in cultured brain astrocytes by Western Blot; type: cell-based; conditions: 20 and 50 μM Zn for 12 hours (FIG. 9)
Method: (§2) Western Blots were carried out in the classical method described in Molecular Cloning—A laboratory manual by Sambroock et al., Cold Spring Harbor Laboratory Press, 2nd edition, 1989.
In astrocytes, zinc influx is mainly mediated by the LTCC. Astrocytes were treated with sub-lethal amounts (20 and 50 μM) of Zn for 12 hours, and ZnT-1 expression evaluated by Western Blot (FIG. 9b).

LTCC [1] = test: Zinc influx in astrocytes pre-treated with zinc; type: cell-based; conditions: astrocytes pre-treated with 20, 50 or 100 μM zinc for 24 or 48 hours (FIG. 10)
Method: Cells were superfused with a Ringer's solution containing: 120 mM NaCl, 5 mM KCl, 20 mM glucose, 10 mM Hepes, 0.5 mM MgCl, 1.8 mM CaCl2 at pH 7.4. For depolarization experiments aimed to fully activate the LTCC, 45 mM NaCl were replaced with 45 mM KCl. ZnSO4 was added at the indicated concentration to this solution.
as §1, with “Fura-2 was excited at 340 nm and 380 nm and the image obtained with a 510 nm long-pass filter.” left out
Astrocytes were pre-treated with 20, 50 or 100 μM of zinc for 24 or 48 hours, and subsequent rates of zinc influx were determined. […]

L-type Ca channel (LTCC) = test: Zinc influx into HEK 293 cells, Fura-2 fluorescence; type: cell-based, human; conditions: control vs ZnT-1 transfected HEK 293 cells, 400 μM zinc (FIG. 4a)
Method: (§3) PC12 and human embryonic kidney (HEK) 293 cells were grown in DMEM medium (Sigma) as described [Montrose Rafizadeh, C. et al. (1997) J. Cell Physiol. 170:299-308], and seeded on cover slides for 1-2 days prior to measurements.
(§4) HEK 293 cells were transiently transfected with 3 μg of plasmid containing ZnT-1 (kindly provided by Dr. R. D. Palmiter, Howard Hughes Medical Institute, University of Washington, Seattle, Wash.) or vector alone, using the calcium precipitation method as described [Sekler, I. et al. (1995) J Biol. Chem. 270:11251-6]. Pherochromocytoma PC12 cells were co-transfected with ZnT-1 or EYFP (Clontech) for control, using the Fugene-6 reagent (Roche). Measurements were performed 36-48 hours following transfection. […]
(§5) Cells were incubated for 30 minutes with 5 μM of the ratiometric dye Fura-2-AM (TEF Labs) in 0.1% BSA-sodium Ringer's solution. […] Changes in intracellular cation concentration were monitored by a single cell imaging system, consisting of a Zeiss Axiovert 100, inverted microscope, Polychrome II monochromator (TILL Photonics) and a cooled CCD (PCO). […] The data was analyzed post acquisition, by selecting single cells (30-50) from the field of view and recording their activity. […]
Control and ZnT-1 transfected HEK 293 cells were exposed to 400 μM zinc, and the rate of zinc influx was monitored over time (FIG. 4a-b).

LTCC [2] = test: Zinc influx into HEK 293 cells transfected with LTCC alone or with ZnT-1; type: cell-based, human
Method: as §3, §4
Cells were incubated for 30 minutes with 5 μM of the ratiometric dye Fura-2-AM (TEF Labs) in 0.1% BSA-sodium Ringer's solution. […] Changes in intracellular cation concentration were monitored by a single cell imaging system, consisting of a Zeiss Axiovert 100, inverted microscope, Polychrome II monochromator (TILL Photonics) and a cooled CCD (PCO). […] The data was analyzed post acquisition, by selecting single cells (30-50) from the field of view and recording their activity.
Rates of zinc influx into HEK293 cells transfected with LTCC only or co-transfected with LTCC and ZnT-1 were measured. […]

L-type Ca channels = test: Ca influx into depolarized PC12 cells expressing endogenous L-type Ca channels; type: cell-based; conditions: ZnT-1 transfected vs control PC12 cells, 1.8 mM calcium, high K+ (FIG. 8)
Method: as §3
(§6) HEK 293 cells were transiently transfected with 3 μg of plasmid containing ZnT-1 (kindly provided by Dr. R. D. Palmiter, Howard Hughes Medical Institute, University of Washington, Seattle, Wash.) or vector alone, using the calcium precipitation method as described [Sekler, I. et al. (1995) J Biol. Chem. 270:11251-6]. Pherochromocytoma PC12 cells were co-transfected with ZnT-1 or EYFP (Clontech) for control, using the Fugene-6 reagent (Roche). Measurements were performed 36-48 hours following transfection.
Cells were superfused with a Ringer's solution containing: 120 mM NaCl, 5 mM KCl, 20 mM glucose, 10 mM Hepes, 0.5 mM MgCl, 1.8 mM CaCl2 at pH 7.4. […]
as §5

HEK 293 cells = test: Zinc efflux in HEK 293 cells transfected with ZnT-1; type: cell-based, human; conditions: cells transfected with ZnT-1 vs non-transfected (FIG. 3)
Method: as §3, §6
Cells were incubated for 30 minutes with 5 μM of the ratiometric dye Fura-2-AM (TEF Labs) in 0.1% BSA-sodium Ringer's solution. Fura-2-AM binds zinc with very high affinity. […] Changes in intracellular cation concentration were monitored by a single cell imaging system, consisting of a Zeiss Axiovert 100, inverted microscope, Polychrome II monochromator (TILL Photonics) and a cooled CCD (PCO). […] The data was analyzed post acquisition, by selecting single cells (30-50) from the field of view and recording their activity.

LTCC [3] = test: LTCC expression by immunoblot, HEK 293 cells transfected with LTCC; type: cell-based, human; conditions: presence or absence of ZnT-1 (FIG. 7)
Method: as §2
(§7) Thus, ZnT-1 putative regulation of LTCC is likely to be at the functional level, and not at the expression level.

LTCC [4] = test: LTCC expression by immunoblot, PC12 cells endogenously expressing LTCC; type: cell-based; conditions: presence or absence of ZnT-1 (FIG. 7)
Method: as §2, §7

LTCC [5] = test: Immunoprecipitation with ZnT-1 antibody and Western blot with LTCC antibody, HEK 293 cells; type: binding, human; conditions: HEK 293 cells co-transfected with LTCC and ZnT-1 (FIG. 11)
Method: as §2
(§8) Immunopercipitation using ZnT-1 antibody followed by Western blot with LTCC antibody was performed.

LTCC [6] = test: Immunoprecipitation with ZnT-1 antibody and Western blot with LTCC antibody, cardiac tissue; type: binding; conditions: mouse cardiac tissue expressing both ZnT-1 and LTCC (FIG. 11)
Method: as §2, §8

Molecule: c1ccc(CN(CCN(Cc2ccccn2)Cc2ccccn2)Cc2ccccn2)nc1 [TPEN, tetrakis-(2-pyridylmethyl)ethylenediamine]
- Fura-2 fluorescence signal (intracellular zinc): lowered the fluorescence signal; also recorded: eliminated

Molecule: [Zn+2] [Zinc, ZnSO4]
- ZnT-1 expression (ZnT-1; listed as Zn^2+): induced by Zn^2+ in a dose-dependent manner
- ZnT-1 expression (ZnT-1; listed as Zn^+2): induced by Zn^+2 in a dose-dependent manner
- rate of zinc influx (LTCC [1]): reduction of zinc influx

B1: ZnT-1: protein encoded by the gene ZnT-1, originally described as a zinc transporter; GenBank Accession No. U17132; expressed by transfection (protein, UniProt Q9Y6M5 1-507, looked up)
Proton-coupled zinc …: MGCWGRNRGRLLCMLALTFMFMVLEVVVSRVTSSLAMLSDSFHMLSDVLALVVALVAERFARRTHATQKNTFGWIRAEVMGALVNAIFLTGLCFAILLEAIERFIEPHEMQQPLVVLGVGVAGLLVNVLGLCLFHHHSGFSQDSGHGHSHGGHGHGHGLPKGPRVKSTRPGSSDINVAPGEQGPDQEETNTLVANTSNSNGLKLDPADPENPRSGDTVEVQVNGNLVREPDHMELEEDRAGQLNMRGVFLHVLGDALGSVIVVVNALVFYFSWKGCSEGDFCVNPCFPDPCKAFVEIINSTHASVYEAGPCWVLYLDPTLCVVMVCILLYTTYPLLKESALILLQTVPKQIDIRNLIKELRNVEGVEEVHELHVWQLAGSRIIATAHIKCEDPTSYMEVAKTIKDVFHNHGIHATTIQPEFASVGSKSSVVPCELACRTQCALKQCCGTLPQAPSGKDAEKTPAVSISCLELSNNLEKKPRRTKAENIPAVVIEIKNMPNKQPESSL
notes: protein encoded by the gene ZnT-1, originally described as a zinc transporter; expressed by transfection
- rate of zinc influx (L-type Ca channel (LTCC)): attenuated
- zinc influx (LTCC [2]; HEK 293, co-expression of LTCC and ZnT-1 vs LTCC alone and non-transfected control (FIG. 6)): reduction in the zinc influx to levels comparable to control; also recorded: reduction in the cation influx to levels comparable to control
- reduction in rate of zinc permeation through LTCC (LTCC [2]; HEK293 co-transfected with LTCC and ZnT-1 vs LTCC alone (FIG. 4c)): 5 fold
- rate of Ca influx (L-type Ca channels): inhibits the rate of Ca influx
- zinc efflux (HEK 293 cells): not accelerated
- LTCC expression level (LTCC [3]): Neither cell type showed changes; also recorded: not changed
- LTCC expression level (LTCC [4]): Neither cell type showed changes; also recorded: not changed; also recorded: without changing LTCC expression
- co-immunoprecipitation of ZnT-1 with LTCC (LTCC [5]): much higher co-immunopercipitation; also recorded: reveals a band
- co-immunoprecipitation of ZnT-1 with LTCC (LTCC [6]): A similar effect; also recorded: reveals a band
